The target in this assay is T1, LRP6 E1E2 protein (human, UniProt O75581 20-630, limits assumed).
T1 construct: domain: E1E2
T1 sequence (looked up): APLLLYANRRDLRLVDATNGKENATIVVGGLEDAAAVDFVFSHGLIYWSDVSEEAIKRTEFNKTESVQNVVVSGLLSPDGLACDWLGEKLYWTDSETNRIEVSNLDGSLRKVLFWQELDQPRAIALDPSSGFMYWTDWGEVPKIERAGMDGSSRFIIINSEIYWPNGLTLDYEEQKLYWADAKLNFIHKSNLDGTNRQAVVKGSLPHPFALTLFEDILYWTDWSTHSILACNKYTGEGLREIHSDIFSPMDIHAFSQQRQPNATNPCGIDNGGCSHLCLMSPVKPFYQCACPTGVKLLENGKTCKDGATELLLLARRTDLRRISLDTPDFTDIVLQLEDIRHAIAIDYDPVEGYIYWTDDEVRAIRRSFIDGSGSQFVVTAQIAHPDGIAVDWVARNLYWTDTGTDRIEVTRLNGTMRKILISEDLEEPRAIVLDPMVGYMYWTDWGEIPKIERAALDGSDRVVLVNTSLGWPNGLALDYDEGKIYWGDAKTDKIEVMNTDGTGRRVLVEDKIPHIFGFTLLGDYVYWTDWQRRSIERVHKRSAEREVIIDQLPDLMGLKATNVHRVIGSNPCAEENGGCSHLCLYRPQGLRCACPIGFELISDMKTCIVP
Kind of assay: spot phage ELISA. On ELISA: unit not given here. On the technique in general: In an ELISA, binding on a coated surface is turned into a signal by an enzyme label.
As for GCVNSVKRCKQDSDCLAGCVCSRGVNCG (designed binder) [LRP6_CKP13], the ELISA came out at 3.28 and the “S/N vs BSA” value came to 37.8.

For the molecule GCRSNKLREARGCKQDSDCLAGCVCGSRQDCG (designed binder) [LRP6_CKP12], the ELISA was 0.6 and the “S/N vs BSA” value was 6.78.

For the molecule GCANRVKRTSCKQDSDCLAGCVCGPNGFCG (designed binder) [LRP6_CKP22], the ELISA was 3.43 and the “S/N vs BSA” value was 42.9.

For the molecule GCGNKIRACKQDSDCLAGCVCRDRVGCG (designed binder) [LRP6_CKP21], the ELISA came out at 2.8 and the “S/N vs BSA” value amounted to 33.7.

On to GCRSGNTIRKRECKQDSDCLAGCVCGGPGGCG (designed binder) [LRP6_CKP9], for which the ELISA turned out to be 2.97 and the “S/N vs BSA” value was found to be 37.6.

In the case of GCENRTKGCKQDSDCLAGCVCGFRGTCG (designed binder) [LRP6_CKP20], the ELISA was 3.1 and the “S/N vs BSA” value worked out at 38.7.

On to GCGSNKIRPRCKQDSDCLAGCVCGPNDFCG (designed binder) [LRP6_CKP14], for which the ELISA came to 3.18 and the “S/N vs BSA” value amounted to 43.5.

On to GCVSNRVNKGCKQDSDCLAGCVCGPNGFCG (designed binder) [LRP6_CKP7], for which the ELISA came to 3.3 and the “S/N vs BSA” value was 29.

GCSNYVKRCKQDSDCLAGCVCSPGGRCG (designed binder) [LRP6_CKP17]: the ELISA stood at 3.09 and the “S/N vs BSA” value was determined as 35.9.

GCASSNSIRQGWCKQDSDCLAGCVCGPKSNCG (designed binder) [LRP6_CKP10]: the ELISA came to 3.29 and the “S/N vs BSA” value came out at 37.4.

As for GCVNRVRGCKQDSDCLAGCVCSGGRDCG (designed binder) [LRP6_CKP2], the ELISA was determined as 3.41 and the “S/N vs BSA” value amounted to 41.6.

In the case of GCNRIRNSCKQDSDCLAGCVCGRGDYCG (designed binder) [LRP6_CKP15], the ELISA worked out at 2.03 and the “S/N vs BSA” value came out at 26.3.

Regarding GCRGNIIKCKQDSDCLAGCVCNESRGCG (designed binder) [LRP6_CKP8], the ELISA amounted to 3.23 and the “S/N vs BSA” value was 37.6.

GCRSNRIRCKQDSDCLAGCVCYGHGDCG (designed binder) [LRP6_CKP11]: the ELISA was 2.65 and the “S/N vs BSA” value came to 36.8.

Regarding GCMNHVKARRCKQDSDCLAGCVCGPNGFCG (designed binder) [LRP6_CKP3], the ELISA worked out at 2.93 and the “S/N vs BSA” value was found to be 40.2.

On to GCVNKIKGCKQDSDCLAGCVCGVEGRCG (designed binder) [LRP6_CKP5], for which the ELISA came to 3.04 and the “S/N vs BSA” value amounted to 35.7.

For the molecule GCSRNSIKCKQDSDCLAGCVCASGSSCG (designed binder) [LRP6_CKP16], the ELISA was 3.36 and the “S/N vs BSA” value is 31.1.

Turning to GCRSVNKICKQDSDCLAGCVCGSSRNCG (designed binder) [LRP6_CKP4], the ELISA is 2.82 and the “S/N vs BSA” value was found to be 25.4.

Consider GCRANRVSGRCKQDSDCLAGCVCGPNGFCG (designed binder) [LRP6_CKP18], for which the ELISA stood at 1.67 and the “S/N vs BSA” value was 18.3.

The values are drawn from patent US20200325187A1 (Genentech, published 2020).
